Test: soluble on expression in E. coli; label from the status in PepcDB or PDB records

| Sequence | soluble on expression in E. coli |
| --- | --- |
| MYPIKYVENNLVFNQEGECFAYYELVPYNYSFLSPEQKYQVHDNFRQLIAQNREGKIHALQIATESSIRATQERSKKEITGRLKEVAKQRIDLQTDALVSMIGDSQIDYRFFIGFKLIATDEEVNLKSLKKSFLSGLQEFVYGVNHHLMGDFVSLSNEEIRRYTKLEKLMESKLARRFKVRRVTPSDLTYLIEHIYGEKGTPFEEYEFQLPKKKLKSETLVKRYDLLHPSRCLIEENPRYLRMEHENHESYVAYLTINTIVGEMEFPSSELFYYQQQQFTFPIDTSMNVEIVTNKKALATVRNKKKELKDLDNHAYQSDNETNSNVLDALDSVNELETTLDQSKESMYKLSYVVRVSAESVDELKRRCDEVFDFYDDTNVKLVRPFGDMMGLHEEFLPSSKRYMNDYIQYVTSDFLAGLGFGATQKLGELEGIYFGYNVDTGRNVYLKPALASQGVKGSVTNALAAAFLGSLGGGKSFSNNLLVYYAVLFGGQAVIVDPKGERGGWKENLPEIADEINILNLTSKPENQGLLDPYVIMKKKKDSESLAIDILTFLTGISSRDGEKFPVLRKAIRTVTQSDQRGLLQVINELRKENSPVAENIADHIESFTDYDFAHLLFSDGSITQSISLDKQLNIIQVADLVLPDAETTFEEYTTMELLSVSMLIVISTFALDFIHSNREIFKIVDLDEAWSFLQVAQGKTLSNKLVRAGRAMNAGVYFVTQNSDDLLDERLKNNIGLKFAFRSTDIHEIKKTLEFFGLDQEDESNQKRLRDLENGQCLMQDLYGRVGVVQVHPVFEELFHAFDTRPPVQERME | not soluble |
| MKHNLNAHEARVIGCLLEKQVTTPEQYPMSLNGLTLACNQKTSRDPVMELSESQVQQTLDFLLKKHLIRSQSGNRVMKYEHRFCNSEFGDLKFSPAEVAVITLLLLRGAQTPGELRTRTNRMYEFADVAETEETLKTLSLREDGPFVVRLAREPGKRESRFMPLFSGDVASSLLAAGEAEENNHTLEANPRETHSFENIALEKTALEARVAQLEQQVIQLSRRLDDVLIQLDDMKKLRVGIVGLGGIAQKAYLPILTQAQGWQLVGAFSPNQAKAQPLCDSYRMRYFSRLDTLAAASDAVFVHSSTASHFQVVHDLLQAGVHVYVDKPLAETREQSEQLIELADKQHLALMVGFNRRFAPLYQQLKQQASSPVSLRMEKHRLSSIGPHDLGFTLLDDYLHVVDTALWLGGEGARLTGGAVQTNAQGQMLYAEHHFQQGGCLITTSMHRQAGTQRESVQVISDGACYHITDMRQWQQASAGQVISQPAPGWQTTLEQRGFTGAVHHFIEAVSNQTRPQVSGEDAIVAQRMIERILQQ | not soluble |
| TGFNYFQYNITNSLNASYGPSQEGNQTDFYAGAVQLQQTVVQLDVDRGLEVGLASPLNVAAGALFRADNYQLKAGEEASWAGFENPPWGINQNGGTPAPGAQVFPGFRPEQEVDETRTNIGTYVDLQADLIDPLQVNIAGRFENYSDFGSTVNGKVALRFEPVSQLAFRGTAQTGYRAPNQAQKFFSKVSTTFIDNQPVQTGIFRINSDVGNALGIPDLE | not soluble |
| MSTHFDVIVVGAGSMGMAAGYQLAKQGVKTLLVDAFDPPHTNGSHHGDTKIIRHAYGEGREYVPLALRSQELWYELEKETHHKIFTKTGVLVFGPKGESAFVAETMEAAKEHSLTVDLLEGDEINKRWPGITVPENYNAIFEPNSGVLFSENCIRAYRELAEARGAKVLTHTRVEDFDISPDSVKIETANGSYTADKLIVSMGAWNSKLLSKLNLDIPLQPYRQVVGFFESDESKYSNDIDFPGFMVEVPNGIYYGFPSFGGCGLKLGYHTFGQKIDPDTINREFGVYPEDESNLRAFLEEYMPGANGELKRGAVCMYTKTLDEHFIIDLHPEHSNVVIAAGFSGHGFKFSSGVGEVLSQLALTGKTEHDISIFSINRPALKESLQKTTI | soluble |
| MEEDLLGICGFDSSKKYRLEELAKYQSGSCIEFEDDDEMAVDYPCPFCSDDYDLVELCHHIDEEHQLDANNGICPVCSRRVKMHMVDHITTQHRDVFKRLYKDESYSAFSPGTRKYLQSLIDEPLSTNHTSKSVLDPLLSFIYNPPSPKKSKLVQPDSSSEASMEDNSLIRDSTEKDWESPSPLSDTELLEKAKKREFVQGLISSAIFDHIYNF | soluble |
| MKSLVKVSLAALALAFAVSAYAAEKELIVATDTAFVPFEFKQGDKYVGFDIDLWDAIAKKLDLKYTLKPMDFSGIIPALQTKNVDLALAGITITDERKKAVDFSDGYYNSGLLVMVKADNNDIKSEADLQGKVLAVKSGTGSVDYAKANIKTKDLRQFPNIDNAYLELGTGRADAVLHDTPNILYFIKTAGNGQFKAVGESIKAQQYGVAFPQGSDLREKVNAALKSLKEDGTYAEIYKKWFGVEPK | not soluble |

Source: the DeepSol protein solubility set
